The target in assay [1] is γ-secretase (human; HeLa cell membrane / solubilized HeLa membrane; endogenous in HEK293 cells) (human) (UniProt P49768). In words: cell-based or functional assay.
The target of assay [2] is γ-secretase (mouse; mouse brain membrane, N2A neuroblastoma cells) (mouse). The assay is described as follows: cell-based or functional assay.

Consider “αCTF-FLAG (recombinant α-secretase cleaved APP C-terminal fragment) (from UniProt P05067 688-770)”, for which, in assay [1], the inhibition of X40 production, αCTF at 0.25 µM was found to be 24%; the inhibition of X40 production, αCTF at 0.5 µM was determined as 32%; the inhibition of X40 production, αCTF at 1.0 µM was found to be 60%; the suppression of γ-secretase activity for Aβ production from 1 µM βCTF, αCTF at 0.25 µM came out at 66%. In addition, in assay [1], the suppression of γ-secretase activity for Aβ production from 1 µM βCTF, αCTF at 0.5 µM was found to be 71% and the suppression of γ-secretase activity for Aβ production from 1 µM βCTF, αCTF at 1.0 µM was 82%.

In assay [2], βCTFΔ (Aβ17-23 deleted form of βCTF) returned a reaction rate of γ-secretase, 40-site production, relative to βCTF (mouse brain membrane) of 25 fold and a reaction rate of γ-secretase, 42-site production, relative to βCTF (mouse brain membrane) of 11 fold. Besides, in assay [1], the rate of γ-secretase activity for Aβ38 production relative to βCTF (HeLa membrane) is under 10 fold and the secreted Aβ40 from transfected HEK293T cells relative to SPβCTF (ECL) worked out at 10 fold.

As to “recombinant βCTF with the Flemish mutation (A21G) (from UniProt P05067 672-770)”, the reaction rate of γ-secretase (Aβ40 production in vitro) relative to WT βCTF in assay [1] stood at 3 fold.

These data come from US20100285988A1.
